Results reported in PMC8693265, “Investigation of PAS and CNBH domain interactions in hERG channels and effects of long-QT syndrome-causing mutations with surface plasmon resonance” (The Journal of Biological Chemistry, 2021).
Like-named read-outs stand apart in the source and are kept apart here.

B1: hERG PAS domain (residues 2-134) (domain or fragment, human, UniProt Q12809 2-134, looked up)
chain: PVRRGHVAPQNTFLDTIIRKFEGQSRKFIIANARVENCAVIYCNDGFCELCGYSRAEVMQRPCTCDFLHGPRTQRRAAAQIAQALLGAEERKVEIAFYRKDGSCFLCLVDVVPVKNEDGAVIMFILNFEVVME
notes: PAS domain (with PAS-cap) of the human ether-a-go-go-related gene (hERG, Kv11.1, KCNH2) channel, residues 2-134; Cloned in pETM11; The PAS domain expressed from mRNA in oocytes (pGH19) is written under this molecule in the functional rows; also called isolated PAS domain; free PAS domain; not shown: 6-His, N-terminal, cleaved
B2: hERG PAS domain with the LQTS-causing mutation E58D (domain or fragment, human, UniProt Q12809 2-134, looked up)
chain: PVRRGHVAPQNTFLDTIIRKFEGQSRKFIIANARVENCAVIYCNDGFCELCGYSRADVMQRPCTCDFLHGPRTQRRAAAQIAQALLGAEERKVEIAFYRKDGSCFLCLVDVVPVKNEDGAVIMFILNFEVVME
notes: PAS domain of the hERG (KCNH2) channel, residues 2-134, with the genetically occurring LQTS mutation E58D; also called PAS-E58D; not shown: 6-His, N-terminal, cleaved
B3: hERG PAS domain with the LQTS-causing mutation R20G (domain or fragment, human, UniProt Q12809 2-134, looked up)
chain: PVRRGHVAPQNTFLDTIIGKFEGQSRKFIIANARVENCAVIYCNDGFCELCGYSRAEVMQRPCTCDFLHGPRTQRRAAAQIAQALLGAEERKVEIAFYRKDGSCFLCLVDVVPVKNEDGAVIMFILNFEVVME
notes: PAS domain of the hERG (KCNH2) channel, residues 2-134, with the genetically occurring LQTS mutation R20G; also called PAS-R20G; not shown: 6-His, N-terminal, cleaved
B4: hERG CNBH domain (residues 734-867) (domain or fragment, human, UniProt Q12809 734-867, looked up)
chain: RSLLQHCKPFRGATKGCLRALAMKFKTTHAPPGDTLVHAGDLLTALYFISRGSIEILRGDVVVAILGKNDIFGEPLNLYARPGKSNGDVRALTYCDLHKIHRDDLLEVLDMYPEFSDHFWSSLEITFNLRDTNM
notes: also called isolated CNBH domain; not shown: 6-His, N-terminal, cleaved
B5: mEAG PAS domain (residues 7-136) (domain or fragment, mouse (from the name mEAG), UniProt Q60603 7-136, looked up)
chain: RRGLVAPQNTFLENIVRRSNDTNFVLGNAQIVDWPIVYSNDGFCKLSGYHRAEVMQKSSACSFMYGELTDKDTVEKVRQTFENYEMNSFEILMYKKNRTPVWFFVKIAPIRNEQDKVVLFLCTFSDITAF
notes: PAS domain of the mEAG channel, residues 7-136; not shown: 6-His, N-terminal, cleaved

How the values were obtained:
Assay in all cases: SPR; one domain amine-coupled to a CM5 chip (~2000-3000 RU), the other injected as analyte over a range of concentrations (maximum 10 uM); Biacore T200, 25 C; 150 mM KCl, 1 mM TCEP, 10% glycerol, 0.05% Tween 20, 30 mM HEPES pH 7.5; fits with the two-state reaction model; for PAS/PAS and CNBH/CNBH the step of oligomerisation is not told
[1] = molecular target: the molecule itself
[2] = molecular target: the molecule itself; remark: listed apart in the source
[3] = molecular target: B4; details: both partners purified
[4] = molecular target: B4; details: both partners purified; remark: listed apart in the source
[5] = molecular target: B1; details: both partners purified

| Binder | Kd [1] | Kd [2] | Kd [3] | Kd [4] | Kd [5] |
| --- | --- | --- | --- | --- | --- |
| B1 | 400 nM | 1600 nM | 1400 nM | – | – |
| B2 | – | – | 600 nM | 200 nM | – |
| B3 | – | – | 3600 nM | 2000 nM | – |
| B4 | 5000 nM | 2700 nM | – | – | – |
| B5 | – | – | – | ~1700 nM | ~5.6 µM |
